According to PMC9771362:
pKd: −log10 of the molar value. One block for each substance: values may come before it.

Legend:
[1] = molecular target: Chaetomium thermophilum dynactin p150^Glued coiled-coil 1B, p150_(CC1B) (residues 478-680) (Chaetomium thermophilum); experiment: AUC; sedimentation equilibrium, dimer to monomers; three concentrations in the range 15-60 µM, 10,000, 14,000 and 18,000 rpm, 20°C; global fit to a monomer-dimer self-association model
[2] = molecular target: Chaetomium thermophilum dynactin p150^Glued coiled-coil 1B, p150_(CC1B) (residues 478-680) (Chaetomium thermophilum); experiment: SEC-MALS; complexes of IC fragments (IC_(1-88)/IC_(100-260); IC_(1-88)/p150_(CC1B)) and p150_(CC1B) alone; Superdex 200; conditions not given
[3] = molecular target: Chaetomium thermophilum dynactin p150^Glued coiled-coil 1B, p150_(CC1B) (residues 478-680) (Chaetomium thermophilum); experiment: ITC; IC construct in the syringe (200-400 µM) titrated into p150_(CC1B) or NudECC in the cell (20-40 µM); 25°C; 50 mM sodium phosphate pH 7.5, 50 mM NaCl, 1 mM sodium azide; two-step model for p150_(CC1B), one-site model for NudECC
[4] = molecular target: Chaetomium thermophilum nuclear distribution protein NudE coiled-coil, NudECC (residues 1-190) (Chaetomium thermophilum); experiment: as above
[5] = molecular target: Chaetomium thermophilum dynein intermediate chain IC_(100-260) (Chaetomium thermophilum); experiment: SEC-MALS; complexes of IC fragments (IC_(1-88)/IC_(100-260); IC_(1-88)/p150_(CC1B)) and p150_(CC1B) alone; Superdex 200; conditions not given
[6] = molecular target: Chaetomium thermophilum nuclear distribution protein NudE coiled-coil, NudECC (residues 1-190) (Chaetomium thermophilum); experiment: AUC; sedimentation equilibrium, dimer to monomers; three concentrations in the range 15-60 µM, 10,000, 14,000 and 18,000 rpm, 20°C; global fit to a monomer-dimer self-association model

pKd [1]: 7.52 | stoichiometry N [1]: 2 | stoichiometry N [2]: 2
Substance: Chaetomium thermophilum dynactin p150^Glued coiled-coil 1B, p150_(CC1B) (residues 478-680) (domain or fragment)

N of each step (two-step binding model) [3]: 0.5 | stoichiometry N [3]: 1 | pKd [4]: 6.52 | stoichiometry N [4]: 1 | stoichiometry N [5]: 1 | stoichiometry N (IC (1-88) chains per p150 (CC1B) dimer) [2]: 2
Substance: Chaetomium thermophilum dynein intermediate chain IC_(1-88) (domain or fragment)

pKd [3]: 4.70
Substance: Chaetomium thermophilum dynein intermediate chain IC_(37-88) (domain or fragment)

pKd [6]: 6.70 | stoichiometry N [6]: 2
Substance: Chaetomium thermophilum nuclear distribution protein NudE coiled-coil, NudECC (residues 1-190) (domain or fragment)
